Assay [1] deals with T1, Human GPC3 (2119-GP; R&D systems), biotinylated (human, UniProt P51654 25-559, biotinylated using standard NHS chemistry).
T1 construct: Bought protein; also called human Glypican-3
Nature of the assay: SPR (Biacore T200), biotinylated GPC3 captured on chip, mutein in flow. How it is done: (§1) SPR analysis of the binding of the optimized Lcn2 muteins to human and mouse GPC3 was performed at 25° C. on a Biacore T200 instrument (GE Healthcare) using HBS-EP+ (1x; BR-1006-69; GE Healthcare) as running buffer. The Biotin CAPture Kit (GE Healthcare) was used to immobilize biotinylated GPC3 to a chip surface. Human GPC3 (2119-GP; R&D systems) and murine GPC3 (6938-GP; R&D systems) were biotinylated using standard NHS chemistry. Undiluted Biotin CAPture Reagent (streptavidin conjugated with ss-DNA oligo) was captured on a Sensor Chip CAP with the pre-immobilized complementary ss-DNA oligo. Thereafter, biotinylated human or murine GPC3 at 1 μg/ml was applied for 300 s at a flow rate of […].
(§2) Lcn2 muteins were applied in concentrations of 10 nM, 40 nM and 160 nM at a flow rate of 30 μL/min. The dilutions were injected with association times of 180 s and dissociation times of 600 s to obtain ka and kd information. Regeneration of the chip surface was achieved by injecting 6 M Guanidinium-HCl+0.25 M NaOH (120 s) with a flow rate of 10 μL/min. Injection of regeneration solutions was followed by an extra wash step with H₂O and a stabilization period of 120 s.
(§3) The data were double-referenced by subtraction of the corresponding signals measured for the control channel (loaded with Biotin CAPture reagent only) and by subtraction of buffer injections from the binding responses. Association rate constant ka and dissociation rate constant kd for the binding reaction were determined using Biacore T200 Evaluation Software V2.0 for data processing and kinetic fitting. The data were globally fit with 1:1 binding model.

In assay [2] the target is T2, murine GPC3 (6938-GP; R&D systems), biotinylated (murine, UniProt Q8CFZ4 25-558, limits assumed, biotinylated using standard NHS chemistry).
T2 construct: Bought protein; also called mouse GPC3
T2 sequence (Q8CFZ4 25-558 limits assumed): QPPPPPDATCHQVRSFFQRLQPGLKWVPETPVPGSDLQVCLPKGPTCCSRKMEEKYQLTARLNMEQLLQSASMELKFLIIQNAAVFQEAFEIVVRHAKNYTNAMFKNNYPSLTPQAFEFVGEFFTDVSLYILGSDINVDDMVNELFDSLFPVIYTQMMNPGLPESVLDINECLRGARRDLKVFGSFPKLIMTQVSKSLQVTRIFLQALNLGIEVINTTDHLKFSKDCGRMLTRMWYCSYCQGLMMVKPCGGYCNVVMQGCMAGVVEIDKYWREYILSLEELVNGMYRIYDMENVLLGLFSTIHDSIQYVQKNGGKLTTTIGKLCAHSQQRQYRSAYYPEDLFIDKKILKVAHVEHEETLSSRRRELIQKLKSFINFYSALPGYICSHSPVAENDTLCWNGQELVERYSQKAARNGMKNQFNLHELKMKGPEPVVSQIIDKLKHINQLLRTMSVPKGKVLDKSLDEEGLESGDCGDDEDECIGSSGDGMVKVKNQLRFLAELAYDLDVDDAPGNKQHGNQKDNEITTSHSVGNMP
The description is as above. How it is done:
as §1, §2, §3

In assay [3] the target is T3, mouse GPC3 on stably transfected SK-HEP-1 cells (mouse, UniProt Q8CFZ4 25-553).
T3 construct: whole, on cells; also called SK-HEP-1::mouse GPC3; murine GPC3
T3 sequence (Q8CFZ4 25-553 limits assumed): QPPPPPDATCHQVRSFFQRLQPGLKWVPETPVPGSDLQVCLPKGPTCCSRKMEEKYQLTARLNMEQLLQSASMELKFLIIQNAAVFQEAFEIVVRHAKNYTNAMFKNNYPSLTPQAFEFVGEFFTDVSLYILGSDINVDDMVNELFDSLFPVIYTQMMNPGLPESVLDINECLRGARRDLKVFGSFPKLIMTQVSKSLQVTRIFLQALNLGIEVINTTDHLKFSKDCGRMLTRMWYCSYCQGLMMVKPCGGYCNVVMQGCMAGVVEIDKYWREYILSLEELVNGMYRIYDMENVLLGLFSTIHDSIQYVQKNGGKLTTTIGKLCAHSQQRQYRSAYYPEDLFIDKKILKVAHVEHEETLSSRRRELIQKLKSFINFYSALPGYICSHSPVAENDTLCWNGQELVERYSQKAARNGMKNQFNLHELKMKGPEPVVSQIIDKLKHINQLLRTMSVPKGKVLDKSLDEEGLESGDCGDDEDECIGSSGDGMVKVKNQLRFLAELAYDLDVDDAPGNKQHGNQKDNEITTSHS
Nature of the assay: MSD-based (ECL) cell binding assay on transfected SK-HEP-1 cells. How it is done:
(§4) Binding of optimized lipocalin muteins of SEQ ID NOs: 5-16 to human, cynomolgus and mouse GPC3 compared to SEQ ID NOs: 3 and 4 was tested on SK-HEP-1 cells using an ECL format (FIG. 1). In this experiment, dilution series of lipocalin muteins were incubated on MSD plates coated with human, cynomolgus or mouse GPC3 overexpressing SK-HEP-1 cells.
(§5) SEQ ID NOs: 3, 4, 5, 7, 8, 9, 10, 12, 13, 14, 15 and 16 (using 1000 nM as starting concentration) were serially diluted at a 1:3 ratio down to the picomolar range in PBS/Casein. 20 μl of the dilution series were transferred to the SK-HEP-1-coated plates for 1 hour at room temperature.
(§6) To allow for detection and quantification of bound GPC3 specific lipocalin muteins, the residual supernatants were discarded and 20 μl of a mixture of rabbit anti scaffold antibody (2 μg/ml) and Sulfotag labelled anti rabbit antibody (5 μg/ml) prepared in PBS/casein was added to the wells and incubated for 1 h at RT. After washing, 35 μl surfactant-free reading buffer was added to each well and the ECL intensity of every well was read using a MSD reader.

Assay [4] addresses T4, cynomolgus GPC3 on stably transfected SK-HEP-1 cells (cynomolgus, UniProt A0A2K5VK50 24-553).
T4 construct: whole, on cells; also called SK-HEP-1::cyno GPC3; SK-HEP-1::cynomolugus GPC3
The description is as above. How it is done: as §4, §5, §6

In assay [5] the target is T5, human GPC3 on stably transfected SK-HEP-1 cells (human, UniProt P51654 25-554).
T5 construct: whole, on cells; also called SK-HEP-1::human GPC3
T5 sequence (P51654 25-554 limits assumed): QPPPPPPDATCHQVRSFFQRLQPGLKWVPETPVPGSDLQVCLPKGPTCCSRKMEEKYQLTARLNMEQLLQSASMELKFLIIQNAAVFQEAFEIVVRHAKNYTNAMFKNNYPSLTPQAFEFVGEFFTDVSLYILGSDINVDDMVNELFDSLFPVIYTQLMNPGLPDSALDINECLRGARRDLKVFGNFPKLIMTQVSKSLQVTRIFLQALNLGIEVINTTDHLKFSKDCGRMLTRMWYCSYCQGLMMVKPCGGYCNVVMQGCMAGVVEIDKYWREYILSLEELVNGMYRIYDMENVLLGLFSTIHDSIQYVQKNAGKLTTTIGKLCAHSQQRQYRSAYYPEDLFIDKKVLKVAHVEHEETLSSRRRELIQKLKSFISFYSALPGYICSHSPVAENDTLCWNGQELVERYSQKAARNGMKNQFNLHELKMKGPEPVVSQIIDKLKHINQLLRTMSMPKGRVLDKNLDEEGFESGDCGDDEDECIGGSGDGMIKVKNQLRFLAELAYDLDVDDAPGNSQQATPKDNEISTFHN
The assay is described as above. How it is done:
as §4, §5, §6

T1 sequence (P51654 25-559 limits assumed): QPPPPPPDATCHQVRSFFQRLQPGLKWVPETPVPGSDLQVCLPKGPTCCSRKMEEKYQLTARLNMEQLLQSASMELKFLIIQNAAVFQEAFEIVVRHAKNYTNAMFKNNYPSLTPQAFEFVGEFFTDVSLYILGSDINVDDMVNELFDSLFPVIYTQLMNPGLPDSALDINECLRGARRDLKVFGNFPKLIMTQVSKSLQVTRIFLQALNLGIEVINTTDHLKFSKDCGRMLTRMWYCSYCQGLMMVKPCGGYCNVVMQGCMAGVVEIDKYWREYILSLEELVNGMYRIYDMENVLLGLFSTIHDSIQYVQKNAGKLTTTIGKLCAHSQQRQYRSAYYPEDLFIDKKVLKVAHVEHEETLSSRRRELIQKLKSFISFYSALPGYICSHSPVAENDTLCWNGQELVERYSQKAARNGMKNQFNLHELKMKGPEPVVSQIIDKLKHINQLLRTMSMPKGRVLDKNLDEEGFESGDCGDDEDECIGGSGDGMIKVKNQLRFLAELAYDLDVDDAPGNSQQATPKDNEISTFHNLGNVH

B1: lipocalin mutein of SEQ ID NO: 8 (designed binder)
chain: QDSTSDLIPAPPLSKVPLQQNFQDNQFQGKWYVVGRAGNVGLREDKDPPKMWATIYELKEDKSYDVTNVRFARKKCLYSIGTFVPGSQPGEFTLGQIKSEPGNTANLVRVVSTNYNQHAMVFFKEVYQNREIFFIILYGRTKELTSELKENFIRFSKSLGLPENHIVFPVPIDQCIDGSAWSHPQFEK
notes: hNGAL (Lcn2) mutein; also called optimized GPC3 specific lipocalin mutein
For orientation: Kd means the constant that tells how readily two partners part at equilibrium. As usually defined, the koff is the first-order rate constant of dissociation. A high value points to fast dissociation. Usually kon stands for a measure of how fast the partners come together. A low value points to slow association. As usually defined, the EC50 is the concentration that produces a half-maximal response. Higher therefore signals a less potent agent. As to B1, the figures for the Kd in assay [1] and in assay [2] were 0.068 nM and 0.096 nM, respectively. For the same molecule, the koff in assay [1] worked out at 0.00013 s⁻¹; in assay [2], 0.00018 s⁻¹. Moreover, the kon is 2e+06 M⁻¹ s⁻¹ in assay [1] and 1.9e+06 M⁻¹ s⁻¹ in assay [2]. Besides, the EC50 is 5.3 nM in assay [3], 2.3 nM in assay [4] and 1.4 nM in assay [5].

B2: lipocalin mutein of SEQ ID NO: 10 (designed binder)
chain: QDSTSDLIPAPPLSKVPLQQNFQDNQFQGKWYVVGRAGNGALREDKDPPKMWATIYELKEDKSYDVTNVRFARKKCVYSIGTFVPGSQPGEFTLGPIKSEPGNTASLVRVVSTNYNQHAMVFFKEVYQNREIFFIILYGRTKELTSELKENFIRFSKSLGLPENHIVFPVPIDQCIDGSAWSHPQFEK
notes: as for B1
Regarding B2, the Kd in assay [1] turned out to be 0.063 nM; in assay [2] it was 0.093 nM. In addition, the results for the koff in assay [1] and in assay [2] were 0.00012 s⁻¹ and 0.00017 s⁻¹, respectively. For the same molecule, the kon in assay [1] and in assay [2] was 1.8e+06 M⁻¹ s⁻¹ each time. Further, the values for the EC50 in assay [3], in assay [4] and in assay [5] were 3.8 nM, 0.8 nM and 0.8 nM, respectively.

B3: lipocalin mutein of SEQ ID NO: 11 (designed binder)
chain: QDSTSDLIPAPPLSKVPLQQNFQDNQFQGKWYVVGRAGNVALREDKDPPKMRATIYELKEDKSYDVTAVRFARKKCLYSIGTFVPGSQPGEFTLGRIKSEPGYTANLVRVVSTNYNQHAMVFFKEVYQNREIFFIILYGRTKELTSELKENFIRFSKSLGLPENHIVFPVPIDQCIDGSAWSHPQFEK
notes: as for B1
In assay [1], B3 gave a Kd of 0.027 nM, a koff of 4.6e-05 s⁻¹ and a kon of 1.7e+06 M⁻¹ s⁻¹. In assay [2], this molecule returned a Kd of 0.011 nM, a koff of 3.2e-05 s⁻¹ and a kon of 2.9e+06 M⁻¹ s⁻¹.

B4: lipocalin mutein of SEQ ID NO: 9 (designed binder)
chain: QDSTSDLIPAPPLSKVPLQQNFQDNQFQGKWYVVGRAGNVGLREDKDPPKMWATIYELKEDKSYDVTNVRFARKKCTYSIGTFVPGSQPGEFTLGQIKSEPGGTANLVRVVSTNYNQHAMVFFKEVYQNREIFFIILYGRTKELTSELKENFIRFSKSLGLPENHIVFPVPIDQCIDGSAWSHPQFEK
notes: as for B1
Regarding B4, the Kd in assay [1] amounted to 0.054 nM; in assay [2], 0.075 nM. The values for the koff in assay [1] and in assay [2] were 9.8e-05 s⁻¹ and 0.00015 s⁻¹, respectively. Also, the kon was found to be 1.8e+06 M⁻¹ s⁻¹ in assay [1] and 2e+06 M⁻¹ s⁻¹ in assay [2]. The EC50 in assay [3] amounted to 4.1 nM; in assay [4] it was 1.9 nM; in assay [5], 1.1 nM.

B5: lipocalin mutein of SEQ ID NO: 4 (designed binder)
chain: QDSTSDLIPAPPLSKVPLQQNFQDNQFHGKWYVVGRAGNVALREDKDPPKMRATIYELKEDKSYNVTNVRFAMKKCMYSIGTFVPGSQPGEFTLGQIKSEPGNTSNLVRVVSTNYNQHAMVFFKEVYQNREIFFITLYGRTKELTSELKENFIRFSKSLGLPENHIVFPVPIDQCIDGSAWSHPQFEK
notes: hNGAL (Lcn2) mutein; also called non-optimized GPC3-specific Lcn2 mutein; mother clone
For B5, the Kd in assay [1] stood at 0.877 nM; in assay [2] it was 1.09 nM. Besides, the koff is 0.0022 s⁻¹ in assay [1] and 0.0028 s⁻¹ in assay [2]. The kon is 2.5e+06 M⁻¹ s⁻¹ in assay [1] and 2.6e+06 M⁻¹ s⁻¹ in assay [2]. Besides, the results for the EC50 in assay [3], in assay [4] and in assay [5] were 7.1 nM, 5.7 nM and 10.2 nM, respectively.

B6: lipocalin mutein of SEQ ID NO: 12 (designed binder)
chain: QDSTSDLIPAPPLSKVPLQQNFQDNQFQGKWYVVGRAGNVALREDKDPPKMRATIYELKEDKSYDVTNVVFAGKKCKYSIGTFVPGSQPGEFTLGRIKSPPGNTANLVRVVSTNYNQHAMVFFKEVYQNREIFFIILYGRTKELTSELKENFIRFSKSLGLPENHIVFPVPIDQCIDGSAWSHPQFEK
notes: as for B1
For the molecule B6, the Kd in assay [1] was 0.037 nM; in assay [2] it was 0.058 nM. Further, the koff turned out to be 0.00024 s⁻¹ in assay [1] and 0.0003 s⁻¹ in assay [2]. Besides, the kon in assay [1] was 6.5e+06 M⁻¹ s⁻¹; in assay [2], 5.1e+06 M⁻¹ s⁻¹. The EC50 in assay [3] turned out to be 5.3 nM; in assay [4] it was 1.7 nM; in assay [5], 2 nM.

B7: lipocalin mutein of SEQ ID NO: 5 (designed binder)
chain: QDSTSDLIPAPPLSKVPLQQNFQDNQFQGKWYVVGVAGNALLREDKDPLKMRATIYELKEDKSYDVTVVSFWRKKCHYKIGTFVPGSQPGEFTLGDIKSGPGQTSNLVRVVSTNYNQHAMVFFKEVRQNREWFAITLYGRTKELTSELKENFIRFSKSLGLPENHIVFPVPIDQCIDGSAWSHPQFEK
notes: as for B1
As to B7, the Kd in assay [1] was found to be 0.119 nM; in assay [2] it was 0.207 nM. Further, the koff in assay [1] came out at 0.0002 s⁻¹; in assay [2], 0.00026 s⁻¹. The kon in assay [1] came to 1.6e+06 M⁻¹ s⁻¹; in assay [2] it was 1.3e+06 M⁻¹ s⁻¹. For the same molecule, the EC50 came to 25.6 nM in assay [3], 33.9 nM in assay [4] and 24.1 nM in assay [5].

B8: lipocalin mutein of SEQ ID NO: 7 (designed binder)
chain: QDSTSDLIPAPPLSKVPLQQNFQDNQFQGKWYVVGVAGNGMLREDKDPLKMRATIYELKEDKSYDVTSVAFRNKKCHYKIGTFVPGSQPGEFTLGQIKSGPGETSNLVRVVSTNYNQHAMVFFKEVRQNREWFFITLYGRTKELTSELKENFIRFSKSLGLPENHIVFPVPIDQCIDGSAWSHPQFEK
notes: as for B1
Regarding B8, the Kd came out at 0.097 nM in assay [1] and 0.145 nM in assay [2]. Besides, the values for the koff in assay [1] and in assay [2] were 0.00013 s⁻¹ and 0.00015 s⁻¹, respectively. Also, the kon is 1.3e+06 M⁻¹ s⁻¹ in assay [1] and 1e+06 M⁻¹ s⁻¹ in assay [2]. The figures for the EC50 in assay [3], in assay [4] and in assay [5] were 4.8 nM, 2.8 nM and 2.5 nM, respectively.

B9: lipocalin mutein of SEQ ID NO: 3 (designed binder)
chain: QDSTSDLIPAPPLSKVPLQQNFQDNQFHGKWYVVGVAGNAMLREDKDPLKMRATIYELKEDKSYNVTGVSFWRKKCHYKIGTFVPGSQPGEFTLGDIKSGPGQTSNLVRVVSTNYNQHAMVFFKEVRQNREWFAITLYGRTKELTSELKENFIRFSKSLGLPENHIVFPVPIDQCIDGSAWSHPQFEK
notes: as for B5
In the case of B9, the Kd in assay [1] stood at 0.387 nM; in assay [2], 0.674 nM. For the same molecule, the koff in assay [1] worked out at 0.00022 s⁻¹; in assay [2], 0.0003 s⁻¹. In addition, the values for the kon in assay [1] and in assay [2] were 560000 M⁻¹ s⁻¹ and 450000 M⁻¹ s⁻¹, respectively. Besides, the EC50 in assay [3] came out at 29.8 nM; in assay [4], 29.9 nM; in assay [5], 24.3 nM.

B10: lipocalin mutein of SEQ ID NO: 6 (designed binder)
chain: QDSTSDLIPAPPLSKVPLQQNFQDNQFQGKWYVVGVAGNVRLREDKDPPKMRATIYELKEDKSYDVTGVSFRGKKCHYKIGTFVPGSQPGEFTLGDIKSGPGETSNLVRVVSTNYNQHAMVFFKEVRQNREWFFITLYGRTKELTSELKENFIRFSKSLGLPENHIVFPVPIDQCIDGSAWSHPQFEK
notes: as for B1
Take B10: in assay [1], the Kd turned out to be 0.019 nM, the koff is 3.3e-05 s⁻¹ and the kon came to 1.8e+06 M⁻¹ s⁻¹. For the same molecule, in assay [2], the Kd turned out to be 0.019 nM, the koff amounted to 4.2e-05 s⁻¹ and the kon worked out at 2.2e+06 M⁻¹ s⁻¹.

For the origin of these results see patent publication US20180141988A1 (Pieris, published 2018).
